The values that follow come from article PMC8755542, “HELQ is a dual-function DSB repair enzyme modulated by RPA and RAD51” (Nature, 2021).

In data set [1] the target is T1, HELQ(K365M) (human, UniProt Q8TDG4 1-1101, K365M).
T1 sequence: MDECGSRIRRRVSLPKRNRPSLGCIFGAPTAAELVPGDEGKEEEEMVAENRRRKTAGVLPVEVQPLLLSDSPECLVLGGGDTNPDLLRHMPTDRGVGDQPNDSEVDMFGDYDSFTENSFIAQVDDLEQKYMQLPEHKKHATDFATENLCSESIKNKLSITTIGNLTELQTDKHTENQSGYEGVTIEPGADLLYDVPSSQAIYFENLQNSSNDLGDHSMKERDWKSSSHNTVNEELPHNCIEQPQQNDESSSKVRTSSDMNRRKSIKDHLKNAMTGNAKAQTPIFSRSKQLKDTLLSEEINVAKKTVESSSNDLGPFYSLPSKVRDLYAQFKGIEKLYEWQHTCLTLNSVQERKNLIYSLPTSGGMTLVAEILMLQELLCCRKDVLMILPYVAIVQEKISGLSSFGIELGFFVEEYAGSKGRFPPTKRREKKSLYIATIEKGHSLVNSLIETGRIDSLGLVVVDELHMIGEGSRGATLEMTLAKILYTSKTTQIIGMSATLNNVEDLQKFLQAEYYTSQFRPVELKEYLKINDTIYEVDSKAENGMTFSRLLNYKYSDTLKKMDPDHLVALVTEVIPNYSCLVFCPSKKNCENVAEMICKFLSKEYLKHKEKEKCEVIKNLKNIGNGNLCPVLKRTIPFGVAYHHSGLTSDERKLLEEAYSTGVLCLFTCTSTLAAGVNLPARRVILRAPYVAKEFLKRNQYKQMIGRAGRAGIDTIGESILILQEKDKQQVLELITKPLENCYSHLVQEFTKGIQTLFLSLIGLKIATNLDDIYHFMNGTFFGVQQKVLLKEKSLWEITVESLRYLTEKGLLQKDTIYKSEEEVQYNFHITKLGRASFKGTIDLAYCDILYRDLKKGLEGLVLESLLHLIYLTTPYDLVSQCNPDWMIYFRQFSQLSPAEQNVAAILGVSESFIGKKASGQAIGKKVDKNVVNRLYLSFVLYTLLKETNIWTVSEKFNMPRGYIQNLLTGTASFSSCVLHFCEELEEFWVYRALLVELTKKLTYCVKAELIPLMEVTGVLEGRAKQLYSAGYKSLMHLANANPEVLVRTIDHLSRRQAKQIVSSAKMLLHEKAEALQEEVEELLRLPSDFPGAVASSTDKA
Description: EMSA; 2 mM ATP, 2 mM Mg2+; EMSA: 25 mM Tris-HCl pH 8.0, 2 mM ATP, 2 mM MgCl2, 1 mM DTT, 50 mM NaCl, 0.1 mg/ml BSA, 25 nM DNA, 10 min 37 C (20 min for RAD51 +/- HELQ); single-molecule at room temperature in similar buffer. The settings on record: protein: recombinant, tags: C-terminal Flag, N-terminal MBP removed with PreScission. (In general: Mobility shift assays separate free from complexed probe on a gel.)

For data set [2], the target named is T2, HELQ;RPA-eGFP (human;human, UniProt Q8TDG4;P27694;P15927;P35244 1-1101;1-616;1-270;1-121, |). In words: single-molecule oligo capture; capture on RPA-eGFP-coated lambda ssDNA; dwell time 134 s; EMSA: 25 mM Tris-HCl pH 8.0, 2 mM ATP, 2 mM MgCl2, 1 mM DTT, 50 mM NaCl, 0.1 mg/ml BSA, 25 nM DNA, 10 min 37 C (20 min for RAD51 +/- HELQ); single-molecule at room temperature in similar buffer. The conditions noted are these: protein: recombinant;recombinant; tags: C-terminal Flag; N-terminal MBP removed with PreScission;eGFP; copies: 1;1;1;1; label: 5' Cy3; single strand.
T2 sequence (P27694 whole entry, chain 2 of 3): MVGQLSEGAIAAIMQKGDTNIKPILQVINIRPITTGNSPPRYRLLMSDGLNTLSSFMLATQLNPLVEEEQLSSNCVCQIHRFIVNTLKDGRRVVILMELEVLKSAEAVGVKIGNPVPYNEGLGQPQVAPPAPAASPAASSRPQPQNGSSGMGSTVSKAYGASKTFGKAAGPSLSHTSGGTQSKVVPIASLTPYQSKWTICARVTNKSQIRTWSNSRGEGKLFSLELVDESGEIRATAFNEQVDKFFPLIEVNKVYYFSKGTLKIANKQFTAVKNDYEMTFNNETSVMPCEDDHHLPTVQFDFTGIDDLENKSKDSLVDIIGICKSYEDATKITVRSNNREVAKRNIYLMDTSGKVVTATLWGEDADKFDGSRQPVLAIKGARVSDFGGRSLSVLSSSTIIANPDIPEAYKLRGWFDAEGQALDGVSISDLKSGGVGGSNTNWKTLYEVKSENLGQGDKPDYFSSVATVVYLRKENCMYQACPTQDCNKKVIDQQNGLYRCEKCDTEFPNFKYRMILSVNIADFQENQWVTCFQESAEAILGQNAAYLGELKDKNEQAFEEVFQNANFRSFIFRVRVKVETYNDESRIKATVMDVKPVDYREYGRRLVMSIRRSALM
T2 sequence (P15927 whole entry, chain 3 of 3): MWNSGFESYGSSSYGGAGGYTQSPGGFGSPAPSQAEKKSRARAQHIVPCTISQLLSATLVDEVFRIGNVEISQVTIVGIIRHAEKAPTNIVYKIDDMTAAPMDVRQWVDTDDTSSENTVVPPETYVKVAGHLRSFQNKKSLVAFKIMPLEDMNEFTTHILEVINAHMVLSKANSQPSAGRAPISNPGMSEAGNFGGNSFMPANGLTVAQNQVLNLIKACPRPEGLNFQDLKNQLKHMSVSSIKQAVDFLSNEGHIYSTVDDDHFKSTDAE
T2 sequence (P35244 whole entry, chain 4 of 3): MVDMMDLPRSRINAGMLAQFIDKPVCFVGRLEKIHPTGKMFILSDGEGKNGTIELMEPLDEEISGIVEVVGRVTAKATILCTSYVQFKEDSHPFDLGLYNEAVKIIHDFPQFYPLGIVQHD

Another data set addresses HELQ(K365M);RPA-eGFP (human;human, UniProt Q8TDG4;P27694;P15927;P35244 1-1101;1-616;1-270;1-121, K365M|). In words: single-molecule oligo capture; capture on RPA-eGFP-coated lambda ssDNA; dwell time 179 s; EMSA: 25 mM Tris-HCl pH 8.0, 2 mM ATP, 2 mM MgCl2, 1 mM DTT, 50 mM NaCl, 0.1 mg/ml BSA, 25 nM DNA, 10 min 37 C (20 min for RAD51 +/- HELQ); single-molecule at room temperature in similar buffer. The settings on record: protein: recombinant;recombinant; tags: C-terminal Flag; N-terminal MBP removed with PreScission;eGFP; copies: 1;1;1;1; label: 5' Cy3; single strand.

Data set [3] deals with T3, HELQ (wild type, purified recombinant human HELQ) (human, UniProt Q8TDG4 1-1101).
T3 construct: human HELQ helicase; custom HELQ ORF (GeneArt); Eluted from Flag resin with 3xFlag peptide; no removal of the Flag tag is described; also called HELQ WT; WT HELQ; source: Sf9 insect cells, purified (amylose, PreScission cleavage of MBP, anti-Flag resin); not shown: MBP, N-terminal, cleaved
T3 sequence (looked up): T1 sequence with M365K
Description: single-molecule imaging (optical tweezers with confocal microscopy, C-Trap); gapped λ-DNA held between beads at constant force of 50 pN; 25 nM Alx–RAD51 with or without 50 nM HELQ or HELQ(K365M) in 1× HELQ buffer (25 mM Tris-HCl pH 8.0, 2 mM MgCl2, 50 mM NaCl), 2 mM ATP, 0.2 mg/ml BSA, 1 mM DTT; room temperature; kymographs of Alx–RAD51. The conditions noted are these: both partners purified.

The target in data set [4] is T4, HELQ(K365M) (human, UniProt Q8TDG4 1-1101, K365M).
T4 construct: human HELQ helicase with the helicase-dead mutation K365M, made from pFB-MBP-HELQ-Flag by site-directed mutagenesis; also called helicase-dead HELQ; HELQ KM; source: Sf9 insect cells, purified (same procedure as wild-type HELQ); not shown: MBP, N-terminal, cleaved
T4 sequence (looked up): T1 sequence
The data set is described as above. The settings on record: both partners purified.

Data set [5] deals with T2, HELQ;RPA-eGFP. Description: single-molecule oligo capture; capture on RPA-eGFP-coated lambda ssDNA; EMSA: 25 mM Tris-HCl pH 8.0, 2 mM ATP, 2 mM MgCl2, 1 mM DTT, 50 mM NaCl, 0.1 mg/ml BSA, 25 nM DNA, 10 min 37 C (20 min for RAD51 +/- HELQ); single-molecule at room temperature in similar buffer. The conditions noted are these: protein: recombinant;recombinant; tags: C-terminal Flag; N-terminal MBP removed with PreScission;eGFP; copies: 1;1;1;1; label: Cy3 (5' in oligo list, 3' in capture assay); single strand.

Another data set concerns the target HELQ(K365M);RPA-mRFP1 (human;human, UniProt Q8TDG4;P27694;P15927;P35244 1-1101;1-616;1-270;1-121, K365M|). In words: pull-down; via biotin-dT43 on streptavidin beads; RPA fusion not stated; EMSA: 25 mM Tris-HCl pH 8.0, 2 mM ATP, 2 mM MgCl2, 1 mM DTT, 50 mM NaCl, 0.1 mg/ml BSA, 25 nM DNA, 10 min 37 C (20 min for RAD51 +/- HELQ); single-molecule at room temperature in similar buffer. The conditions noted are these: protein: recombinant;recombinant; tags: C-terminal Flag; N-terminal MBP removed with PreScission;mRFP1; copies: 1;1;1;1; label: Cy3 (5' in oligo list, 3' in capture assay); single strand.

For another data set, the target named is HELQ;RPA-mRFP1 (human;human, UniProt Q8TDG4;P27694;P15927;P35244 1-1101;1-616;1-270;1-121, |). Description: pull-down; via biotin-dT43 on streptavidin beads; 82 nM RPA, fusion not stated; EMSA: 25 mM Tris-HCl pH 8.0, 2 mM ATP, 2 mM MgCl2, 1 mM DTT, 50 mM NaCl, 0.1 mg/ml BSA, 25 nM DNA, 10 min 37 C (20 min for RAD51 +/- HELQ); single-molecule at room temperature in similar buffer. The settings on record: protein: recombinant;recombinant; tags: C-terminal Flag; N-terminal MBP removed with PreScission;mRFP1; copies: 1;1;1;1; label: Cy3 (5' in oligo list, 3' in capture assay); single strand.
Chain of HELQ;RPA-mRFP1 (P27694 whole entry, chain 2 of 3, the tested form may be a part): as the sequence (P27694 whole entry, chain 2 of 3) above
Chain of HELQ;RPA-mRFP1 (P15927 whole entry, chain 3 of 3, the tested form may be a part): as the sequence (P15927 whole entry, chain 3 of 3) above
Chain of HELQ;RPA-mRFP1 (P35244 whole entry, chain 4 of 3, the tested form may be a part): as the sequence (P35244 whole entry, chain 4 of 3) above

Numbering of substitutions follows the chain as printed. Names and notes keep the numbering of the source.

Chain of HELQ(K365M);RPA-mRFP1 (P27694 whole entry, chain 2 of 3, the tested form may be a part): as the sequence (P27694 whole entry, chain 2 of 3) above
Chain of HELQ(K365M);RPA-mRFP1 (P15927 whole entry, chain 3 of 3, the tested form may be a part): as the sequence (P15927 whole entry, chain 3 of 3) above
Chain of HELQ(K365M);RPA-mRFP1 (P35244 whole entry, chain 4 of 3, the tested form may be a part): as the sequence (P35244 whole entry, chain 4 of 3) above
Chain of HELQ(K365M);RPA-eGFP (P27694 whole entry, chain 2 of 3): as the sequence (P27694 whole entry, chain 2 of 3) above
Chain of HELQ(K365M);RPA-eGFP (P15927 whole entry, chain 3 of 3): as the sequence (P15927 whole entry, chain 3 of 3) above
Chain of HELQ(K365M);RPA-eGFP (P35244 whole entry, chain 4 of 3): as the sequence (P35244 whole entry, chain 4 of 3) above

As for AGCTACCATGCCTGCACGAATTAAGCAATTCGTAATCATGGTCATAGCT (ssDNA) [ssDNA (oligo 1)], in the data set with HELQ(K365M) [1] (label: 5' FITC, single strand 49 nt), the binding result was “binds”.

B1: dsDNA (oligo 1 + oligo 2) (dsDNA)
DNA 1: AGCTACCATGCCTGCACGAATTAAGCAATTCGTAATCATGGTCATAGCT
DNA 2: AGCTATGACCATGATTACGAATTGCTTAATTCGTGCAGGCATGGTAGCT
As for B1, the binding result with HELQ(K365M) [1] (label: 5' FITC on strand 1, blunt 49 bp) is listed as “binds”.

B2: lambda4 80-mer (ssDNA)
DNA: CCTGAACGACCAGGCGTCTTCGTTCATCTATCGGATCGCCACACTCACAACAATGAGTGGCAGATATAGCCTGGTGGTTC
In the case of B2, the binding result with HELQ;RPA-eGFP [2] and with HELQ(K365M);RPA-eGFP was “binds” throughout.

B3: Alx–RAD51 (RAD51(C319S) labelled with Alexa Fluor 488 C5 maleimide) (natural protein, human, UniProt Q06609 1-339, looked up)
chain: MAMQMQLEANADTSVEEESFGPQPISRLEQCGINANDVKKLEEAGFHTVEAVAYAPKKELINIKGISEAKADKILAEAAKLVPMGFTTATEFHQRRSEIIQITTGSKELDKLLQGGIETGSITEMFGEFRTGKTQICHTLAVTCQLPIDRGGGEGKAMYIDTEGTFRPERLLAVAERYGLSGSDVLDNVAYARAFNTDHQTQLLYQASAMMVESRYALLIVDSATALYRTDYSGRGELSARQMHLARFLRMLLRLADEFGVAVVITNQVVAQVDGAAMFAADPKKPIGGNIIAHASTTRLYLRKGRGETRICKIYDSPSLPEAEAMFAINADGVGDAKD
modifications: Alexa Fluor 488 C5 maleimide label (1:1 labelling stoichiometry; labelled residue not given)
notes: human RAD51 recombinase with the mutation C319S; also called RAD51(A488); source: E. coli, purified as WT RAD51, then labelled and separated from free dye (Zeba column)
Take B3: the binding result (in data set [3]; with HELQ(K365M) [4]) was “binds” each time.

B4: dT79 (ssDNA)
DNA: TTTTTTTTTTTTTTTTTTTTTTTTTTTTTTTTTTTTTTTTTTTTTTTTTTTTTTTTTTTTTTTTTTTTTTTTTTTTTTT
Take B4: the binding result with HELQ;RPA-eGFP [5], with HELQ(K365M);RPA-mRFP1 and with HELQ;RPA-mRFP1 was “binds” each time.
